# Source: patent US10801046B2, “Methods and materials for biosynthesizing multifunctional, multivariate molecules via carbon chain modification” (INVISTA NORTH AMERICA S.A.R.L., priority 2016, dated 2020)
# B1: SEQ ID NO: 193: Pseudomonas fluorescens thioesterase (protein, listed as Pseudomonas fluorescens)
# chain: MRVWFLSAGLALMCMAQNAAAGTVLIVGDSISAGFGLDTRLGWVSLLEQRLEQEGFDDKVVNASISGDTSAGGQARLPALLAEHKPDLVILELGGNDGLRGMPPTQLQQNLAAMIDSSRQSGAKVLLLGMQLPPNYGKRYTDAFAEVYGKLADDKKIPLVPFFLDGVGGHPDLMQADGLHPAAGAQGKLLENVWPTLKPLL
# B2: SEQ ID NO: 188: Vibrio mimicus thioesterase (protein, listed as Vibrio mimicus)
# chain: MIRLLSLVLFFCLSAASQASEKLLVLGDSLSAGYQMPIEKSWPSLLPDALLEHGQDVTVINGSISGDTTGNGLARLPQLLDQHTPDLVLIELGANDGLRGFPPKVITSNLSKMISLIKDSGANVVMMQIRVPPNYGKRYSDMFYDIYPKLAEHQQVQLMPFFLEHVITKPEWMMDDGLHPKPEAQPWIAEFVAQELVKHL
# B3: SEQ ID NO: 189: Sedimenticola thiotaurini thioesterase (protein, listed as Sedimenticola thiotaurini)
# chain: MKKLFLLLIFAMSNVPAAEPVILVLGDSLSAAYGIERSRGWVSLLQSRLQQAGYPHRVVNASISGDTTAGGLARLPRALEQFQPDILIIELGGNDGLRGLGNRQTRDHLDQMITLARASHSRPLLLGMMLPPNFGKAFTEKFLQIYRDLAEQRNVPLVPFFLAGVADRPEWMQSDGIHPTAEGQPLMLEHVWEQLQPMLEETSVHSDKSLK
# B4: SEQ ID NO: 190: Bacteroides finegoldii CL09T03C10 thioesterase (protein)
# chain: MSESNKIGTYKFVAEPFHVDFNGRLTMGVLGNHLLNCAGFHASDRGFGIASLNEDNYTWVLSRLAIELDEMPYQYEDFSVQTWVENVYRLFTDRNFAIMNKEGKKIGYARSVWAMISLNTRKPADLLALHGGSIVDYICDEPCPIEKPSRIKVTNTQPLATLTAKYSDIDINGHVNSIRYIEHILDLFPIDLYKTKRIRRFEMAYVAESYFGDELTFFCDEANENEFHVEVKKNGSEVVCRSKVIFE
# modifications: Bacteroides finegoldii CL09T03C10
# notes: Bacteroides finegoldii CL09T03C10 thioesterase
# B5: SEQ ID NO: 191: Pseudoalteromonas sp. SW0106-04 thioesterase (protein)
# chain: MSASILRVFIVLLLVTKPLFAWADNQILVLGDSLSAAYGLKQHQGWVQLLQDTYEQQNTPTTLINASISGETTGGALRRLDAILKEHTPTHVLIELGGNDGLRGFPVTKMKANLHALIDKSREAGAEVALMQIRIPPNYGRRYTELFEQSFVDVAKEKQVTLMPFFVEQVATNGELMQNDNIHPNAEAQPILRDIMKTQISNWLTK
# modifications: Pseudoalteromonas sp. SW0106-04
# notes: Pseudoalteromonas sp; SW0106-04 thioesterase
# B6: SEQ ID NO: 82: Vibrio shilonii AK1 thioesterase (protein)
# chain: MIRQLSYFVLIVISLASFHAKAATLLILGDSLSAGYNMRAEQSWPTMLSDELSSGDEPMKVINGSVSGDTTSNGLAKLPGLLKQHSPDYVLIELGANDGLRGFQPSIIKNNLASLIEMSQQAGSKVLLMQIRIPPNYGKRYASMFEGIYPALAQESGVPLLPFFLEQVIIKPEWMMEDGLHPKPEAQPFIAQFVAESMQPHL
# modifications: Vibrio shilonii AK1
# notes: Vibrio shilonii AK1 thioesterase
# B7: SEQ ID NO: 192: Vibrio mytili thioesterase (protein, listed as Vibrio mytili)
# chain: MIRLLSLFLFFSLSTLAHANEKLLVLGDSLSAGYQMPIEKSWPSLLSNALLEHDQDVTVINGSISGDTTGNGLARLPQLLDQHTPDFVILELGANDGLRGFPPKLITANLSKMITMIKNSGAKVFMMQIRVPPNYGKRYSDMFYDIYPKLAEHQQVTLLPFFLEHVVTKPEWMMDDGLHPKPEAQPWIAEFVAQELIKHL
# B8: SEQ ID NO: 86: Marine sediment metagenome thioesterase (protein)
# chain: MTVKALTTRLPAPGPQVRYFSALRSAVLCVFLLAAGFCASTSAESDDGVLLVFGDSLSAAYRMDERDGWVALLQQQLREESTALQVVNGSVSGETTAGGLARLPAMLDAHQPDIVMLELGGNDGLRGLPVTSIRQNLERMIQMSQQAGARVILAGIQIPPNYGPRYTAPFYAQYQELADEYGLVLIPFLLEGIADNPALMQDDGIHPTAAAQPMIVDTVWPVLQGVLTATDRP
# modifications: Description of Unknown: Marine sediment metagenome
# notes: Marine sediment metagenome thioesterase
# B9: SEQ ID NO: 123: Pseudomonas sp. 10-1B aminotransferase (protein)
# chain: MENSMSLNDLQQRDIDNLLHPYTNHHLHQSQGPHVITGGDGIYVTDDQGNRYIEGLAGLFCASLGFSEPRLAQAAFEQLQRMPFYHAFAHKSTQPGIELAERLLAMAPPSMSKVFFANSGSEANDTAVKLIWYYHNAIGQPQKKKIIARQRGYHGVTVASASLTGLPNNHRDFDLPIANILHTDCPHYYRYGLPGESEAAFVDRCVANLEALILHEGADTIAAFFAEPVMVSGGVILPPQGYFAKVQALLRKYDILFVVDEVICGFARTGNMFGWQTYDLQPDMISLAKQLSAAYMPISALLVNDKIDQALKAQSEKIGSFSHGFTYGGHPVAAAVALEAQKIYQERDIVGHVRRVAPRFQAGIRRLGEHPLIGEARGVGLVAGLEFVRNKQTRETFAPEQSAAAYAGRRAQAHGVITRGLGDTLSLCPALIIDEEQIDDLIVRIERALDDTLAWAREQGLVDA
# modifications: Pseudomonas sp. 10-1B
# notes: Pseudomonas sp; 10-1B aminotransferase
# B10: SEQ ID NO: 179: Sphingobacterium spiritivorum ATCC 33861 aminotransferase (protein)
# chain: MIKEATVHERLAKHILADGLPLVIDLEKSHDSYIVDIEGNEYLDMFSMFASSPIGYNHPHIVKNSDLLKKVAINKLALSDIYPREFADFVDTFERVAIPAELSYCFFIDGGALAVENALKAAFDWKTRLNISRGIQQEASEVIHFKQAFHGRTGYTLSLTNTKDPRKYMYFPKFDWPRITNPKLHFPLTEESVTETIKAEQQAIQEIEAAIAKNPDAIACLILEPIQAEGGDNHFRTEFFQELRRICDDHDILLILDEVQTGLALTGKMWAYEHYGIIPDLISFGKKSQVCGVLAHREKFDRVEKHVFKESSRINSTFGGNLVDMMRFKLILEVIEQENLVQQAESLGEYLLEKLEQLAKRHSQLSNVRGKGLLASFDFQTEQQRDEFVKRAMNNKLLILGCGDKSIRFRPHLTVTVEQLDKALALVEKSL
# modifications: Sphingobacterium spiritivorum ATCC 33861
# notes: Sphingobacterium spiritivorum ATCC 33861 aminotransferase
# B11: SEQ ID NO: 181: Bradyrhizobium sp. DOA9 aminotransferase (protein)
# chain: MVAKQLSNSLAHADISATLHPYTNARAHERQGPVIIDRGEGIYVYDDAGKEYIEGLAGLWSVAIGFDEPRIVEVAAAQMAKLPYYHTFSHKSHEPSIRLAEKLVGMTPEPLSRVFFTSSGSEANDTMIKMVWYMNNALGRPKKKKFLARHRAYHGVTVASGSLTGLPNNHKDFDLPVIPVRHLTCPHFYRFAQTEETEAEFSARLVSEAEATILEEGPDTIAAFVGEPLMAAGGVMPPPKGYWQGIEALCRKYDILLVADEVICGLGRLGTRFGCEHYHFTPDIMIVSKQLTSSYMPLAAVIFSETIYNAIADNTAKIGTFGHGFTASGHPVATAVALENLKIIEERDLVGNAARMGRILQARLGELAAHPLVGEVRGVGLIAGIELVSEKHTRRPFASAGEVGAAAFAAAQRHGLIVRAIGDTIALCPPLIINEDQVHELVARLGDALDDTAQWRSAENLN
# modifications: Bradyrhizobium sp. DOA9
# notes: Bradyrhizobium sp; DOA9 aminotransferase
# B12: SEQ ID NO: 180: Ramlibacter tataouinensis aminotransferase (protein, listed as Ramlibacter tataouinensis)
# chain: MAYNDFDTGNHWLPFTPNRHFKKEPRVFVAADGMHFTTHDGRQVVDGISSLWCVGAGHNRKPINEAIKKQLDTLDYATAFNAANDQAFLAAQKIAAMAPGDLNKVLFCNSGSEAADTSMKVALAYHRARGEGHRNIFIGRERGYHGVGFGGMSVGGIPANRKVYGTALLPRVDHMRFIHDPANAYIHNQEPVSQEDYLLELEQRILPLHSPENVAAIIVEPVAGSAGWYLPPKGYLKRLREICDKHGILLIFDEVITGFGRMGTSFGADFYGVVPDMLNFAKCVTNGVIPLGGVICRDKLYDTMMKTDAPEHVIEFFHGYTYSGHPVSCAAAIATLDLYQKEGLFPRAGEMGKVLGDAFHSTFKGLPNVVGIRSLGLAAAVELAPIAGLPGKRAYDIYLDCFRKGALVRPAGDVVVIAPPYVVEKSHIDQLVNTLADSIRQHA
# modifications: Ramlibacter tataouinensis (strain ATCC BAA-407 / DSM 14655 / LMG 21543 / TTB310)
# notes: Ramlibacter tataouinensis aminotransferase
# B13: SEQ ID NO: 117: Thermomicrobium roseum aminotransferase (protein)
# chain: MTEVAAVHPEPRTAPDFEQEALKHVWIHSAEWIRLAEERGFRVFERAYGSTLVDVYGREFIDGLSGLWVVNAGHGRKEIAEAMAEQASKLAYVSSANHTTVPTVRLAHELALRLPGDLNRVFFCSGGSEAVESAIKIAKQVQAMRGFPKRYKIIARRGSYHGMTYGAMSLTQSRNEKFFGPFMYGVYYVPSPNRYRNDFGLEGEEGDLMCANYVEQEILYQDPETVAAVIGEPISTSNGVHVPSPKYWQRLREICDKYGVLLIMDEVINGFGRTGKLFAAEHFGVVPDLMTMAKGITSGYAPMGAVAVRDSVFQIFQEQKEVPLGHLLTFGGHAVAAAAALKNLEIFEREGLVQQSAEKGAYLLERLKELLRHPTVGDVRGLGLMCGIELVKSKATKEKWPRNSAFIKALERRMNEKGLLTRVWEIVHVAPPLVVTYEELDRIVTIIDEALTETENEFASEIAE
# modifications: Thermomicrobium roseum (strain ATCC 27502 / DSM 5159 / P-2)
# notes: Thermomicrobium roseum aminotransferase
# Test system: heptanedioyl-ACP
# Experiment: not given
# Type: cell-based, Escherichia coli
# Details: top 150 hits screened in vivo
row,Molecule,activity toward heptanedioyl-ACP in vivo
1,B1,displayed considerable activity toward heptanedioyl-ACP
2,B2,displayed considerable activity toward heptanedioyl-ACP
3,B3,displayed considerable activity toward heptanedioyl-ACP
4,B4,displayed considerable activity toward heptanedioyl-ACP
5,B5,displayed considerable activity toward heptanedioyl-ACP
6,B6,displayed considerable activity toward heptanedioyl-ACP
7,B7,displayed considerable activity toward heptanedioyl-ACP
8,B8,displayed considerable activity toward heptanedioyl-ACP

# Test system: not listed separately
# Experiment: In vivo aminotransferase activity screening, 7-aminoheptanoate by LC-MS
# Type: cell-based, Escherichia coli
# Details: in vivo conversion of 7-oxoheptanoate to 7-aminoheptanoate, 120 aminotransferases screened
# Summary of the method: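 Aminotransferase library expressed in E. coli T7 Express lysY/Iq co-expressing sfp, CAR_Srot and BioC, grown overnight at 37° C in rich media with 0.4 mM IPTG and 1 g/L monomethyl heptanedioate, heptanedioate or no acid. Culture supernatants analysed by LC-MS for 7-aminoheptanoate or its monomethyl ester.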
row,Molecule,7-aminoheptanoate yield compared to the positive control (F2XBU9)
1,B9,higher 7-aminoheptanoate yields
2,B10,higher 7-aminoheptanoate yields
3,B11,higher 7-aminoheptanoate yields
4,B12,higher 7-aminoheptanoate yields
5,B13,higher 7-aminoheptanoate yields
